Measurements reported in patent publication US20240390460A1 (Regeneron, published 2024).

T1: Human IL2RG (interleukin-2 receptor subunit gamma), wild type (human, UniProt P31785 23-369)
T1 construct: also called wild type human IL2RG; WT IL2RG
T1 sequence: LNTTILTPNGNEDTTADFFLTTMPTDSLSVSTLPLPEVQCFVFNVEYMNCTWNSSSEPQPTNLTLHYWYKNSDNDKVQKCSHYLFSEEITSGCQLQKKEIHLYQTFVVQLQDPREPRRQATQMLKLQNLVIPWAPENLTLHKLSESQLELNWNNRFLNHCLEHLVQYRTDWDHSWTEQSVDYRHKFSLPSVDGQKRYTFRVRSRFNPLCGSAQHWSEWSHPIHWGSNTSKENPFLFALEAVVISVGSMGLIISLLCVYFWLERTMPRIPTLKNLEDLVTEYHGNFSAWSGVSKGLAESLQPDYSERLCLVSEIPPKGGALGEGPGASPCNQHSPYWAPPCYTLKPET

T2: murine Il2rg (murine, UniProt P34902 23-369)
T2 construct: whole, on cells; also called mouse IL2RG; murine IL2rg receptor
T2 sequence (looked up): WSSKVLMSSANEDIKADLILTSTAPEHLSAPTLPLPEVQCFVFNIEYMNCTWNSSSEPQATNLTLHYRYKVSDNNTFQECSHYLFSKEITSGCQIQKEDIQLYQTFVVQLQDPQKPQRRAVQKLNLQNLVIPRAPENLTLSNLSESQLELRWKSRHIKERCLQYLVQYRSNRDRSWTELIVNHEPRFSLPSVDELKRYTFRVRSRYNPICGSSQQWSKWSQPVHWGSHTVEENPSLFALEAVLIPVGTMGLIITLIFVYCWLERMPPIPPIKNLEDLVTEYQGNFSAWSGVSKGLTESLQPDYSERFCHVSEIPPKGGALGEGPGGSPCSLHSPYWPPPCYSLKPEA

T3: recombinant human IL2RG extracellular domain (human, UniProt P31785 23-262)
T3 construct: also called IL2RG ectodomain; ECD
T3 sequence: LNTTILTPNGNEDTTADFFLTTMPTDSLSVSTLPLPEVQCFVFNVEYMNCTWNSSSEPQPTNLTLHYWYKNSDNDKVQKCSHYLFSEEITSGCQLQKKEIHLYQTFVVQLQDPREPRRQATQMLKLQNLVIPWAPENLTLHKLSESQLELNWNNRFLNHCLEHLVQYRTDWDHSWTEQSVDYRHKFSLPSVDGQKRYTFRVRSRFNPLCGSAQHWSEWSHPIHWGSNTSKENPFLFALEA

B1: REGN7257 (antibody, human IgG4 S228P, kappa, V domains shown)
VH: EVQLVESGGGLVQPGGSLRLSCAASGFIFSSYEMHWVRQAPGKGLEWISYISSSGTTIYYADSVKGRFTISRDNAKNSLYLHMNSLRAEDTAVYYCTRARITGTFDVFDIWGQGTMVTVSS
VL: DIQMTQSPSSLSASVGDRVTITCRASQSISSYLNWYQQKPGKAPKLLIFAASNLQSGVPSRFSGSRSGTDFTLTISSLQPEDFATYYCQQNYNIPYTFGQGTKLEIKR
notes: also called H4H12889P; anti-IL2RG antibody
B2: REGN7257 Fab region (Fab, V domains shown)
VH: B1 VH
VL: DIQMTQSPSSLSASVGDRVTITCRASQSISSYLNWYQQKPGKAPKLLIFAASNLQSGVPSRFSGSRSGTDFTLTISSLQPEDFATYYCQQNYNIPYTFGQGTKLEIK
notes: Fab region of REGN7257 used for cryoEM

Tests used:
[1] = biological target: T1, Human IL2RG (interleukin-2 receptor …); assay: flow cytometry on iPSC-derived NK cells
[2] = biological target: T2, murine Il2rg; assay: stated in Example 1 for donor T cells of wild-type mice; no binding assay described
[3] = biological target: T3, recombinant human IL2RG extracellular …; assay: cryoEM of the complex

Binder	binding result [1]	binding result [2]	binding result [3]
B1	binds	no binding	
B2			binds
